Assay [1] addresses ZigA (Zur-induced GTPase A) (A. baumannii). The assay can be described thus: SEC. A general note: Size exclusion chromatography separates by hydrodynamic size, large species first.
The next assay deals with ZigA. Conditions: read-out: apparent Km; Zn-bound ZigA (2 µM), 2 mM MgCl2, 150 mM NaCl, 20 mM Tris-HCl pH 8.0.

The term stoichiometry N denotes the number of molecules, sites or subunits per partner or assembly. In assay [1], ZigA (Zur-induced GTPase A) (enzyme) had a stoichiometry N of 2. Broadly, the Km is the substrate concentration at which the rate is half of its maximum. Regarding `Nc1nc2c(ncn2[C@@H]2O[C@H](COP(=O)(O)OP(=O)(O)OP(=O)(O)O)[C@@H](O)[C@H]2O)c(=O)[nH]1` [GTP], the Km in the assay with ZigA worked out at 150 µM.
